# System: RED STAR yeast
# Assay: Conventional simultaneous saccharification fermentation (SSF) of liquefied corn mash, ethanol yield by weight loss and HPLC
# Format: cell-based
# Settings: conventional SSF, 70 hours
# Protocol: Liquefied corn mash was used to evaluate the effect of adding salicylic acid (SA) to a known enzyme dosage of
# The performance of these enzymes was compared to controls without salicylic acid addition. The experimental set-up used is described in table below.
# 5.5 g of RED STAR™ yeast was rehydrated in 100 mL distilled water and incubated at 32° C. for 30 minutes prior to the beginning of fermentation. Approximately 50 million cells/g DS of yeast were added to each of the fermentations.
# The corn mash was thawed to room temperature. Urea and Penicillin were added to a final concentration of […] and 3 mg/L respectively. Small-scale (˜4 g) fermentations were carried out in 15 mL polypropylene tubes with five replicates for each experimental condition. The tubes were prepared by drilling a 1/32 inch (1.5 mm) hole and the empty tubes were then weighed before liquefied corn mash was added. The tubes were weighed again after mash was added to determine the exact weight of mash in each tube. This weight was used to calculate the enzyme dosage necessary as follows:
# Enzyme was added according to dosage described in table above and 100 μl of rehydrated yeast were added to each tube to begin fermentation. Fermentation progress was followed by weighing the tubes over time for approximately 70 hours. Tubes were vortexed briefly before each weighing. […]
molecule,measurement,setting,value
"Aspergillus niger GA: Aspergillus niger G1 glucoamylase disclosed in Boel et al., 1984, EMBO J. 3 (5): 1097-1102 (protein, UniProt P69328 25-640, looked up) Glucoamylase: ATLDSWLSNEATVARTAILNNIGADGAWVSGADSGIVVASPSTDNPDYFYTWTRDSGLVLKTLVDLFRNGDTSLLSTIENYISAQAIVQGISNPSGDLSSGAGLGEPKFNVDETAYTGSWGRPQRDGPALRATAMIGFGQWLLDNGYTSTATDIVWPLVRNDLSYVAQYWNQTGYDLWEEVNGSSFFTIAVQHRALVEGSAFATAVGSSCSWCDSQAPEILCYLQSFWTGSFILANFDSSRSGKDANTLLGSIHTFDPEAACDDSTFQPCSPRALANHKEVVDSFRSIYTLNDGLSDSEAVAVGRYPEDTYYNGNPWFLCTLAAAEQLYDALYQWDKQGSLEVTDVSLDFFKALYSDAATGTYSSSSSTYSSIVDAVKTFADGFVSIVETHAASNGSMSEQYDKSDGEQLSARDLTWSYAALLTANNRRNSVVPASWGETSASSVPGTCAATSAIGTYSSVTVTSWPSIVATGGTTTTATPTGSGSVTSTSKTTATASKTSTSTSSTSCTTPTAVAVTFDLTATTTYGENIYLVGSISQLGDWETSDGIALSADKYTSSDPLWYVTVTLPAGESFEYKFIRIESDDSVEWESDPNREYTVPQACGTSTATVTDTWR","Ethanol yield after 70 hours fermentation determined by HPLC, With SA",SA dose 5.0 mM/gDS,117.67
same,"Ethanol yield after 70 hours fermentation determined by HPLC, without SA",no SA,113.74
